According to paper PMC9279222, “Human myelin proteolipid protein structure and lipid bilayer stacking” (Cellular and Molecular Life Sciences: CMLS, 2022):

Molecular target: the molecule itself
Experiment: SEC-MALS; protein conjugate analysis; 50 µg protein on Superdex 200 Increase 10/300 in 0.2% DM, 0.3 M NaCl, 0.5 mM TCEP, 5% glycerol, 20 mM Tris pH 7.5; protein-detergent complex

Row | Protein | stoichiometry N
1 | human DM20 (shorter isoform of myelin proteolipid protein) (natural protein, UniProt P60201-2 1-242, looked up, DM20, minor isoform of human PLP (26 kDa), lacks 35 residues in the intracellular loop; Studied in a detergent complex (DM or UDM); source: Sf21 insect cells (baculovirus), solubilized in DM or UDM, purified (IMAC, TEV cleavage, reverse IMAC, SEC); not shown: eGFP, C-terminal, cleaved; His8, C-terminal, cleaved) MGLLECCARCLVGAPFASLVATGLCFFGVALFCGCGHEALTGTEKLIETYFSKNYQDYEYLINVIHAFQYVIYGTASFFFLYGALLLAEGFYTTGAVRQIFGDYKTTICGKGLSATFVGITYALTVVWLLVFACSAVPVYIYFNTWTTCQSIAFPSKTSASIGSLCADARMYGVLPWNAFPGKVCGSNLLSICKTAEFQMTFHLFIAAFVGAAATLVSLLTFMIAATYNFAVLKLMGRGTKF | 2
2 | human myelin proteolipid protein (natural protein, UniProt P60201-1 1-277, looked up, myelin proteolipid protein (PLP), human, 30 kDa; cloned from acc; NM_000533; Studied in a detergent complex (DM, UDM or d-DDM); also called PLP; myelin PLP; source: Sf21 insect cells (baculovirus), solubilized in DM or UDM, purified (IMAC, TEV cleavage, reverse IMAC, SEC); not shown: eGFP, C-terminal, cleaved; His8, C-terminal, cleaved) MGLLECCARCLVGAPFASLVATGLCFFGVALFCGCGHEALTGTEKLIETYFSKNYQDYEYLINVIHAFQYVIYGTASFFFLYGALLLAEGFYTTGAVRQIFGDYKTTICGKGLSATVTGGQKGRGSRGQHQAHSLERVCHCLGKWLGHPDKFVGITYALTVVWLLVFACSAVPVYIYFNTWTTCQSIAFPSKTSASIGSLCADARMYGVLPWNAFPGKVCGSNLLSICKTAEFQMTFHLFIAAFVGAAATLVSLLTFMIAATYNFAVLKLMGRGTKF | 2
